Assay results from patent US12247072.
Like-named read-outs stand apart in the source and are kept apart here.

How the values were obtained:
[1] = target: keyhole limpet hemocyanin; assay: polyreactivity ELISA
[2] = target: keyhole limpet hemocyanin; assay: polyreactivity ELISA; remark: listed apart in the source

## Bococizumab (antibody)
[1]
  Binding to KLH (A450 normalised to buffer control): 47.1
[2]
  Binding to KLH (A450 normalised to buffer control): 24.4
